{
  "source": "paper PMC10853764",
  "key": {"[1]": {"biological_target": "Caulobacter crescentus full length DriD with His-tag (Caulobacter crescentus)", "experiment": "SEC"}, "[2]": {"biological_target": "Caulobacter crescentus full length DriD, tag-free (Caulobacter crescentus)", "experiment": "mass photometry"}, "[3]": {"biological_target": "Caulobacter crescentus full length DriD, tag-free (Caulobacter crescentus)", "experiment": "cross-linking"}, "[4]": {"biological_target": "DriD(L10E) with His-tag (Caulobacter crescentus)", "experiment": "SEC"}, "[5]": {"biological_target": "DriD(V73P-F74P) with His-tag (Caulobacter crescentus)", "experiment": "SEC"}, "DriD WT [6]": {"biological_target": "T1, DriD WT (Caulobacter crescentus, UniProt Q9A999 5-331)", "T1 sequence": "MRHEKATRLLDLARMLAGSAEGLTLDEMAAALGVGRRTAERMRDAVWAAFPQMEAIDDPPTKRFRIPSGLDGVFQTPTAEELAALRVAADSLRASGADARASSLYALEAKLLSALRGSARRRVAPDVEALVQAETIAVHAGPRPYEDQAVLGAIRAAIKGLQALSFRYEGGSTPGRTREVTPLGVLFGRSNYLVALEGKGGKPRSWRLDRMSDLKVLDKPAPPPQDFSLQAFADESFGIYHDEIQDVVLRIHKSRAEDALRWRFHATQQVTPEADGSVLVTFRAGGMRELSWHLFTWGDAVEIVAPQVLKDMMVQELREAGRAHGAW", "experiment": "fluorescence polarization"}, "DriD(V73P-F74P)": {"biological_target": "T2, DriD(V73P-F74P) (Caulobacter crescentus, UniProt Q9A999 5-331, V77P;F78P)", "T2 sequence": "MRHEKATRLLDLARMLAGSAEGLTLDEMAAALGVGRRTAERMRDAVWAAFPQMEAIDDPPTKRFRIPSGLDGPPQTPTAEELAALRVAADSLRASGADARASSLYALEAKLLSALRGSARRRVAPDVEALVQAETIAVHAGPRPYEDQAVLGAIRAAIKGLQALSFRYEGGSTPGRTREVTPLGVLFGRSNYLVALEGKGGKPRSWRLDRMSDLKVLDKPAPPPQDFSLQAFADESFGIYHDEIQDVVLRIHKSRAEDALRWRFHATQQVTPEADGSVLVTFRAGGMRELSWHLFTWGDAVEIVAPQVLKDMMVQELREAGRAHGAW", "experiment": "fluorescence polarization"}, "DriD(T61A-K62A)": {"biological_target": "T3, DriD(T61A-K62A) (Caulobacter crescentus, UniProt Q9A999 5-331, T65A;K66A)", "T3 sequence": "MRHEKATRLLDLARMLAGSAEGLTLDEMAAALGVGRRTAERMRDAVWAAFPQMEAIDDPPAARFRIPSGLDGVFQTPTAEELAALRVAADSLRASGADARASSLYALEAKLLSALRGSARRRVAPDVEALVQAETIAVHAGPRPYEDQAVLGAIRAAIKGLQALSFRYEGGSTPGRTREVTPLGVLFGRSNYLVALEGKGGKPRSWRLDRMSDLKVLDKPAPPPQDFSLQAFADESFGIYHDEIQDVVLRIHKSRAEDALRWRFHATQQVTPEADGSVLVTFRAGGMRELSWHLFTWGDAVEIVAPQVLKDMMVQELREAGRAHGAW", "experiment": "fluorescence polarization"}, "DriD(L10E)": {"biological_target": "T4, DriD(L10E) (Caulobacter crescentus, UniProt Q9A999 5-331, L14E)", "T4 sequence": "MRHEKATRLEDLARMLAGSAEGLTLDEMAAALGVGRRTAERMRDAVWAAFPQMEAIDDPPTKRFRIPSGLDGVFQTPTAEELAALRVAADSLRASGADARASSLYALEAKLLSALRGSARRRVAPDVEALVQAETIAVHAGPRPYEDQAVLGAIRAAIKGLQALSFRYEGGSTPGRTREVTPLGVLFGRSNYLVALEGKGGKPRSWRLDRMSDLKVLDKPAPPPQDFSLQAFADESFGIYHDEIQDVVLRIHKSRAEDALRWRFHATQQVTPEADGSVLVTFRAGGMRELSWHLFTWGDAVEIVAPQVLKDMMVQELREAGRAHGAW", "experiment": "fluorescence polarization"}, "DriD(E40K)": {"biological_target": "T5, DriD(E40K) (Caulobacter crescentus, UniProt Q9A999 5-331, E44K)", "T5 sequence": "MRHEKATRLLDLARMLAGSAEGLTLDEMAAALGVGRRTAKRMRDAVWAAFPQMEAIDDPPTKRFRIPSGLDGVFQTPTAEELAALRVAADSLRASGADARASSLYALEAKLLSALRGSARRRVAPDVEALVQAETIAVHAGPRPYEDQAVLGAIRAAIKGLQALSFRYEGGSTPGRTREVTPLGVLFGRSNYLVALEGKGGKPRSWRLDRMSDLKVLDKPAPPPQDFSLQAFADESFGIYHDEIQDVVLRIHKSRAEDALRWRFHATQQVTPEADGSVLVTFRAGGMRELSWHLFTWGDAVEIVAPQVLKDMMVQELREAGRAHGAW", "experiment": "fluorescence polarization"}, "DriD(E40A)": {"biological_target": "T6, DriD(E40A) (Caulobacter crescentus, UniProt Q9A999 5-331, E44A)", "T6 sequence": "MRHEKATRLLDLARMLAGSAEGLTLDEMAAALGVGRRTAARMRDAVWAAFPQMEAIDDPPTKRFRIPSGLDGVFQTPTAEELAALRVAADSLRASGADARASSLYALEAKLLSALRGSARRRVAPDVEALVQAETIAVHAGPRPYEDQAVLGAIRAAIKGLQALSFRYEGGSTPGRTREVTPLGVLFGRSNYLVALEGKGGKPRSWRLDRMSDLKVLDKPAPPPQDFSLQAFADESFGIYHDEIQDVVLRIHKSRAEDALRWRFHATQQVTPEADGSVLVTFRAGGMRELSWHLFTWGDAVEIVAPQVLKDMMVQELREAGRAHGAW", "experiment": "fluorescence polarization"}, "DriD WT [7]": {"biological_target": "T1, DriD WT", "experiment": "X-ray crystallography 2.74 A"}, "DriD WT [8]": {"biological_target": "T1, DriD WT", "experiment": "fluorescence polarization", "remark": "listed apart in the source"}},
  "data": [
    {"molecule": "Caulobacter crescentus full length DriD with His-tag (natural protein)", "values": [
      {"measurement": "stoichiometry N", "setting": "[1]", "result": 2}
    ]},
    {"molecule": "Caulobacter crescentus full length DriD, tag-free (natural protein)", "values": [
      {"measurement": "stoichiometry N", "setting": "[2]", "result": 2},
      {"measurement": "stoichiometry N", "setting": "[3]", "result": 2}
    ]},
    {"molecule": "DriD(L10E) with His-tag (natural protein)", "values": [
      {"measurement": "stoichiometry N", "setting": "[4]", "result": 2}
    ]},
    {"molecule": "DriD(V73P-F74P) with His-tag (natural protein)", "values": [
      {"measurement": "stoichiometry N", "setting": "[5]", "result": 2}
    ]},
    {"molecule": "position 3/13 mutant (T3/A13 to C/G in text) (dsDNA) DNA 1: ATACGGCAGTTACTGCCGTAT DNA 2: ATACGGCAGTAACTGCCGTAT", "values": [
      {"measurement": "Kd", "setting": "DriD WT [6]", "result": "7.1 ± 0.9", "unit": "nM"}
    ]},
    {"molecule": "driD promoter 21 bp site (FP) (dsDNA) DNA 1: ATACGACAGTTACTGTCGTAT DNA 2: ATACGACAGTAACTGTCGTAT", "values": [
      {"measurement": "Kd", "setting": "DriD(V73P-F74P)", "result": "133 ± 10.4", "unit": "nM"},
      {"measurement": "Kd", "setting": "DriD(T61A-K62A)", "result": "1200 ± 200", "unit": "nM"},
      {"measurement": "Kd", "setting": "DriD(L10E)", "result": "120 ± 23.6", "unit": "nM"},
      {"measurement": "Kd", "setting": "DriD WT [6]", "result": "1.6 ± 0.04", "unit": "nM"},
      {"measurement": "binding signal", "setting": "DriD(E40K)", "result": "83 fold reduction vs WT protein"},
      {"measurement": "binding signal", "setting": "DriD(E40A)", "result": "7 fold reduction vs WT protein"}
    ]},
    {"molecule": "TGTCTAT (ssDNA)", "note": "[7mer ssDNA effector]", "values": [
      {"measurement": "binding result", "setting": "DriD WT [7]", "result": "binds"}
    ]},
    {"molecule": "G2/C14 to A/T (dsDNA) DNA 1: ATACAATAGTTACTATTGTAT DNA 2: ATACAATAGTAACTATTGTAT", "values": [
      {"measurement": "Kd", "setting": "DriD WT [6]", "result": "512 ± 227", "unit": "nM"}
    ]},
    {"molecule": "C4/G12 to T/A (dsDNA) DNA 1: ATACGATAGTTACTATCGTAT DNA 2: ATACGATAGTAACTATCGTAT", "values": [
      {"measurement": "Kd", "setting": "DriD WT [6]", "result": "962 ± 182", "unit": "nM"}
    ]},
    {"molecule": "C1/G15 to T/A (dsDNA) DNA 1: ATATGACAGTTACTGTCATAT DNA 2: ATATGACAGTAACTGTCATAT", "values": [
      {"measurement": "Kd", "setting": "DriD WT [6]", "result": "6.9 ± 1.7", "unit": "nM"}
    ]},
    {"molecule": "GC-rich center mutant (dsDNA) DNA 1: ATACGACGGCCGCCGTCGTAT DNA 2: ATACGACGGCGGCCGTCGTAT", "values": [
      {"measurement": "binding signal", "setting": "DriD WT [8]", "result": 20, "unit": "fold reduction vs WT site"}
    ]}
  ]
}
